Test [1] has as its target human wild-type RON (cell surface) (human, UniProt Q04912 25-1400). The test can be described thus: cell-based or functional assay.
Test [2] concerns the target T1, delta 160 RON variant (cell surface) (human, UniProt Q04912 25-1400).
T1 construct: whole, on cells; Splice variant; also called delta 160 variant
The experiment in a line: FACS titration on HT29 cells, 4 C. The procedure: Binding to cell surface human wild-type RON and the delta 160 RON variant by antibodies 07F01, Sh07F01-62, 29B06, and Sh29B06-78 was measured at 4° C., using Fluorescence Activated Cell Sorting (FACS). PC3 cells expressing the human wild-type RON, and HT29 cells expressing the delta 160 variant, were harvested using cell dissociation buffer (Invitrogen), washed twice with FACS buffer (PBS with 0.5% BSA), and treated 10 minutes with Cyto Q Antibody diluent and FC receptor block (Innovex Biosciences, Richmond, Calif.). Purified antibodies were diluted in FACS buffer over a concentration range from 0.01 nM to 25 nM. Cells were incubated with 100 μl of antibody for one hour, washed with FACS buffer three times, and incubated for 45 minutes with goat anti-mouse PE-conjugated antibody (Jackson ImmunoResearch Laboratories, West Grove, Pa.) or donkey anti-human PE-conjugated antibody (Jackson ImmunoResearch Laboratories, West Grove, Pa.). Cells were washed three times with FACS buffer, resuspended in 300 μl of FACS buffer, and analyzed using a Beckman Coulter Cytomics FC 500 FACS instrument. All four antibodies were compared in the same experiment.

Test [3] concerns the target T1, delta 160 RON variant (cell surface). The test can be described thus: FACS, 10 ug/ml antibody, HT-29 cells, 4 C. Here is the method:
Binding to cell surface wild-type RON and delta 160 RON at 4° C. was determined for antibodies 07F01, 12B11, 17F06, 18H09, and 29B06, using FACS. Cells expressing wild-type RON (PC3), and cells expressing delta 160 RON (HT-29), were harvested using cell dissociation buffer (Invitrogen), washed twice with FACS buffer (0.5% BSA PBS) and treated with CytoQ Antibody diluent and FC receptor block (Innovex). Purified antibodies were diluted at a concentration of 10 μg/ml, in FACS buffer. Cells were incubated with 100 μl of antibody mix for one hour, washed with FACS buffer three times, and incubated for 45 minutes with goat anti-mouse PE conjugated antibody (Jackson Immunoresearch Laboratories). Cells were washed three times with FACS buffer, resuspended in 300 μl of FACS buffer and analyzed using a Beckman Coulter Cytomics FC 500 FACS instrument.

Test [4] concerns the target T2, recombinant human RON-ECD/mFc fusion protein (human, UniProt Q04912 25-957).
T2 construct: extracellular domain; also called rhRON ECD/mFc; rhRon ECD/mFc; not shown: THXmFC: Thrombin/His tag/Factor Xa-AJ mouse IgG-Fc
The experiment in a line: SPR, Ab captured on anti-mouse IgG, 25 C, AVG. Here is the method: (§1) The binding affinities and kinetics of binding of antibodies 07F01, 29B06, 17F06, 18H09, and 12B11 to recombinant human RON-ECD/mFc fusion protein (rhRON ECD/mFc) and recombinant human RON SEMA and PSI domains (rhRON SEMA+PSI) (R&D Systems, Inc., Minneapolis, Minn.) were measured by surface plasmon resonance, using a Biacore T100 instrument (GE Healthcare, Piscataway, N.J.).
(§2) Rabbit anti-mouse IgGs (GE Healthcare) were immobilized on carboxymethylated dextran CM4 sensor chips (GE Healthcare) by amine coupling, according to a standard protocol. Analyses were performed at 25° C. and 37° C., using PBS containing 0.05% surfactant P20 as running buffer. The antibodies were captured in individual flow cells at a flow rate of 10 μl/min. Injection time was varied for each antibody to yield an Rmax between 30 and 60 RU. 250 μg/mL mouse Fc were injected at 30 μl/min for 120 seconds to block non-specific binding of antibodies to Fc portion of the protein when needed. Buffer, rhRon ECD/mFc or rhRON SEMA+PSI diluted in running buffer was injected sequentially over a reference surface (no antibody captured) and the active surface (antibody to be tested) for 300 seconds at 60 μl/minute. The dissociation phase was monitored for up to 3600 seconds. The surface was then regenerated with two 60-second injections of 10 mM Glycine-HCl, pH 1.7, at a flow rate of 60 μl/min. The rhRON ECD/mFc or rhRON SEMA+PSI concentration range tested was 0.625 nM to 20 nM.
(§3) Kinetic parameters were determined using the kinetic function of the BIAevaluation software (GE Healthcare) with double reference subtraction. Kinetic parameters for each antibody, kₐ (association rate constant), kd (dissociation rate constant) and KD (equilibrium dissociation constant) were determined.
(In general: SPR reads the build-up and loss of mass on a sensor chip optically.)

In test [5] the target is T2, recombinant human RON-ECD/mFc fusion …. The test can be described thus: SPR, Ab captured on anti-mouse IgG, 37 C, AVG. The procedure: as §1, §2, §3
Test [6] deals with T3, recombinant human RON SEMA and PSI domains (human, UniProt Q04912 25-571).
T3 construct: domain: SEMA+PSI; Commercial protein (R&D Systems); also called rhRON SEMA+PSI; hRON SEMA+PSI
The experiment in a line: SPR, Ab captured on anti-mouse IgG, 37 C, AVG. The procedure: as §1, §2

B1: 07F01 (antibody, mouse IgG1, kappa, V domains shown)
VH: EVKLLESGGGLVQPGGSLKLSCAASGFDFSRHWMSWVRLAPGKGLEWIAEINPDSRTINYTPSLKEKFIISRDNAKNSLFLQMNRVRSEDTALYYCARRVRIHYYGAMDCWGQGTSVTVSS
VL: DIVLTQSQKIVSTSVGARVSVTCKASQNVGSSLVWYQQKPGQSPKTLIYSASFRYSGVPDRFTGSGSGTDFTLTISNVQSEDLADYFCQQYNNYPLTFGAGTKLELKR
notes: Murine hybridoma monoclonal, IgG1/kappa; also called mu07F01; antibody 07F01
Take B1: the “Percent Inhibition of MSP-induced HPAF-II cell migration, antibody 2 ug/ml” value in test [1] was determined as 95.6%. The Kd (in general, the constant that tells how readily two partners part at equilibrium) in test [2] is 0.1 nM; in test [4] it was 0.23 nM; in test [5], 0.21 nM; in test [6], 0.4 nM. For the same molecule, the “HT-29 % cell surface binding” value in test [3] amounted to 99.1%. For the same molecule, the koff (in general, a measure of how fast the partners let go of each other) in test [4] is 9.3e-05 s⁻¹; in test [5] it was 0.00035 s⁻¹; in test [6], 0.0008 s⁻¹. Further, the results for the kon in test [4], in test [5] and in test [6] were 400000 M⁻¹ s⁻¹, 2.1e+06 M⁻¹ s⁻¹ and 2e+06 M⁻¹ s⁻¹, respectively.

B2: 29B06 (antibody, mouse IgG1, kappa)
heavy: EVQLQESGPSLVKPSQTLSLTCSVTGDSITSGYWNWIRKFPGNKLEYMGYISYSGKTYYNPSLKSRISITRDTSKNHYYLQLISVTAEDTATYYCARSKYDYAMDYWGQGTSVTVSSAKTTPPSVYPLAPGSAAQTNSMVTLGCLVKGYFPEPVTVTWNSGSLSSGVHTFPAVLQSDLYTLSSSVTVPSSTWPSETVTCNVAHPASSTKVDKKIVPRDCGCKPCICTVPEVSSVFIFPPKPKDVLTITLTPKVTCVVVDISKDDPEVQFSWFVDDVEVHTAQTQPREEQFNSTFRSVSELPIMHQDWLNGKEFKCRVNSAAFPAPIEKTISKTKGRPKAPQVYTIPPPKEQMAKDKVSLTCMITDFFPEDITVEWQWNGQPAENYKNTQPIMDTDGSYFVYSKLNVQKSNWEAGNTFTCSVLHEGLHNHHTEKSLSHSPGK
light: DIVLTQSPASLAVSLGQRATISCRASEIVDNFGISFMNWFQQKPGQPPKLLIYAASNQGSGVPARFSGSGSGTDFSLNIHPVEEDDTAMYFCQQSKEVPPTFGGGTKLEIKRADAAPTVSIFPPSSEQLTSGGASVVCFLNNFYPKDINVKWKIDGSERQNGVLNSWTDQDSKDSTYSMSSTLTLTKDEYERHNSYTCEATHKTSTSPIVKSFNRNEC
notes: Murine hybridoma monoclonal, IgG1/kappa; also called mu29B06; antibody 29B06
For B2, in test [1], the “Percent Inhibition of MSP-induced HPAF-II cell migration, antibody 2 ug/ml” value is 96.8%. The Kd is 0.167 nM in test [2], 0.65 nM in test [4], 0.28 nM in test [5] and 1.3 nM in test [6]. Besides, in test [3], the “HT-29 % cell surface binding” value came to 99%. In addition, the koff is 0.00013 s⁻¹ in test [4], 0.0007 s⁻¹ in test [5] and 0.00069 s⁻¹ in test [6]. The kon – broadly, the second-order rate constant of association – was 200000 M⁻¹ s⁻¹ in test [4], 2.3e+06 M⁻¹ s⁻¹ in test [5] and 520000 M⁻¹ s⁻¹ in test [6].

The values are drawn from US20120027773A1 (AVEO PHARMACEUTICALS, published 2012).
